Tests used:
Assay in all cases: pull-down
Conditions in all cases: both partners purified
[1] = target: TcdB1 holotoxin L563G/I566G (Clostridioides difficile (VPI10463 …, UniProt P18177 1-2366, L563G | I566G))
TcdB1 holotoxin S567E = TcdB1 holotoxin S567E (Clostridioides difficile (VPI10463 …, UniProt P18177 1-2366, S567E))
TcdB1 holotoxin D1812G = TcdB1 holotoxin D1812G (Clostridioides difficile (VPI10463 …, UniProt P18177 1-2366, D1812G))
TcdB1 holotoxin Y621A = TcdB1 holotoxin Y621A (Clostridioides difficile (VPI10463 …, UniProt P18177 1-2366, Y621A))
[2] = target: TcdB1 holotoxin V1816G/L1818G (Clostridioides difficile (VPI10463 …, UniProt P18177 1-2366, V1816G | L1818G))
[3] = target: TcdB1 holotoxin F1823G/I1825G/M1831G (Clostridioides difficile (VPI10463 …, UniProt P18177 1-2366, F1823G | I1825G | M1831G))
TcdB1 holotoxin N1850A = TcdB1 holotoxin N1850A (Clostridioides difficile (VPI10463 …, UniProt P18177 1-2366, N1850A))
TcdB1 holotoxin N1758A = TcdB1 holotoxin N1758A (Clostridioides difficile (VPI10463 …, UniProt P18177 1-2366, N1758A))
TcdB1 holotoxin Y603G = TcdB1 holotoxin Y603G (Clostridioides difficile (VPI10463 …, UniProt P18177 1-2366, Y603G))

Measured: binding result

B1: Repeat1-Fc (CSPG4 Repeat1, residues 410–551, fused to the N-terminus of human IgG1 Fc) (Fc fusion)
chain: ELPEPCVPEPGLPPVFANFTQLLTISPLVVAEGGTAWLEWRHVQPTLDLMEAELRKSQVLFSVTRGARHGELELDIPGAQARKMFTLLDVVNRKARFIHDGSEDTSDQLVLEVSVTARVPMPSCLRRGQTYLLPIQVNPVND
notes: also called CSPG4 decoy; source: FreeStyle HEK 293 cells, secreted, purified (Ni-NTA); not shown: Fc (human IgG1), C-terminal, kept
binds: all assays above

Reference: paper PMC8213806 (Nature Communications, 2021)
